Reference: patent US12227551B2, “Membrane bound IL12 compositions and methods for tunable regulation” (Obsidian Therapeutics, Inc., priority 2018, dated 2025)

Experiments:
CD19+ Nalm6 tumors [1] = test: Nalm6-Luc tumor burden by BLI, mean total flux, NSG mice given CAR-T cells (Example 9; Table 28); assay type: in vivo
Procedure: (§1) The study was designed to determine if membrane bound IL12 (mbIL12) expressed on CAR-T cells via a CD8 TM domain and CD8 Hinge Region promotes CAR T cell expansion in cis, promotes non-CAR-T cell expansion in trans, and/or increases in vivo CAR T cell efficacy against CD19+ Nalm6 tumors. To test in vivo anti-tumor activity, experiments were performed in NSG mice. Nalm6 cells were transfected with Redifect Red-Fluc (Perkin Elmer) under selection using Puromycin for ˜2 months to generate a line that stably expresses the luciferase reporter; thereafter named Nalm6-Luc. Ten days before tumor implantation, Nalm6-Luc cells were thawed and cultured in puromycin-containing media. On day 0, cells were counted, resuspended in PBS and injected into NSG mice via tail vein. On day 6, mice were imaged for bioluminescent intensity (BLI) and sorted into groups based on their tumor size ensuring that all groups had the same sized tumors. Human T cells were transduced with one of the following constructs as shown in the study design in Table 27:
(§2) Next, holding total CAR+ T cell dose constant at either 300,000 or 1 million cells per animal, transduced T cells were intravenously infused into mice on day 7. Tumors were monitored in mice using BLI and the mean of the Total Flux (photons/second) was calculated for each group as an indicator of tumor burden (Table 28). In order to track the trans effect of IL12 expressing CART cells on T cells that lack expression of IL12, 5 million GFP+ T cells (negative for IL12) were co-infused with the IL12-expressing CAR+ T cells, and peripheral blood draws taken over time to evaluate the effect of IL12 on phenotypic changes in GFP+ T cells by flow cytometry analysis.

CD19+ Nalm6 tumors [2] = test: Kaplan-Meier animal survival, Nalm6-Luc NSG model (Example 9; Table 29); assay type: in vivo, NSG mice
Procedure: as §1
Percent survival was also measured for each group during the course of the experiment and the following numbers were obtained as shown in Table 29: […]

[3] = Body weight and clinical signs of GVHD, Nalm6-Luc NSG model (Example 9; Table 30); assay type: in vivo, NSG mice; settings: in g (unit assumed)
Procedure: as §1
The amount of body weight loss appeared to correlate with the levels of plasma IL12 detected at earlier timepoints (Table 31).

[4] = Plasma IL12 and IFNgamma cytokine levels, Nalm6-Luc NSG model (Example 9; Table 31); assay type: in vivo, NSG mice; settings: day 14 post T cell transfer
Procedure: as §1
Thus, anti-tumor efficacy (Table 28) appears to correlate with plasma cytokine levels.

[5] = system: CAR+ T cells and GFP+ T cells; test: CAR-T and GFP+ T cell expansion in peripheral blood by flow cytometry (Example 9; Table 32); assay type: in vivo, NSG mice; settings: cell numbers in 50 uL blood
Procedure: as §2
Thus, anti-tumor efficacy (Table 28) appears to correlate with CAR-T cell expansion.

CD19+ Nalm6 tumors [6] = test: Kaplan-Meier animal survival (Example 10; Table 35); assay type: in vivo, NSG mice
Procedure: as §1, with “To” for “The study was designed to determine if membrane bound IL12 (mbIL12) expressed on CAR-T cells via a CD8 TM domain and CD8 Hinge Region promotes CAR T cell expansion in cis, promotes non-CAR-T cell expansion in trans, and/or increases in vivo CAR T cell efficacy against CD19+ Nalm6 tumors. To”, “ensure” for “ensuring”, “33:” for “27:”
Percent survival was also measured for each group during the course of the experiment and the following numbers were obtained as shown in Table 35: […]

[7] = Plasma IL12 and IFNgamma levels (Example 10; Table 36); assay type: in vivo, NSG mice; settings: day 14 post T cell transfer; 1 million CAR+ T cells
Procedure: as §1, with “To” for “The study was designed to determine if membrane bound IL12 (mbIL12) expressed on CAR-T cells via a CD8 TM domain and CD8 Hinge Region promotes CAR T cell expansion in cis, promotes non-CAR-T cell expansion in trans, and/or increases in vivo CAR T cell efficacy against CD19+ Nalm6 tumors. To”, “ensure” for “ensuring”, “33:” for “27:”
Thus, anti-tumor efficacy (Table 34) appears to correlate with plasma IL12 and IFNgamma levels.

[8] = system: CAR+ T cells and GFP+ T cells; test: CAR-T and GFP+ T cell expansion in peripheral blood by flow cytometry (Example 10; Table 37); assay type: in vivo, NSG mice; design: unit not given here; settings: day 14 post T cell transfer, 1 million CAR+ T cells
Procedure: as §2, with “at” for “at either 300,000 or”, “34).” for “28).”, “on” for “on T cells”, “10” for “5”
Thus, anti-tumor efficacy (Table 34) appears to correlate with CAR-T cell expansion.

B1: OT-001356: CD19 CAR; stop; IRES; secreted IL12 (p40 23-328; (G4S)3; p35 57-253); nucleic acid SEQ ID NO: 482 (protein)
chain: IWELKKDVYVVELDWYPDAPGEMVVLTCDTPEEDGITWTLDQSSEVLGSGKTLTIQVKEFGDAGQYTCHKGGEVLSHSLLLLHKKEDGIWSTDILKDQKEPKNKTFLRCEAKNYSGRFTCWWLTTISTDLTFSVKSSRGSSDPQGVTCGAATLSAERVRGDNKEYEYSVECQEDSACPAAEESLPIEVMVDAVHKLKYENYTSSFFIRDIIKPDPPKNLQLKPLKNSRQVEVSWEYPDTWSTPHSYFSLTFCVQVQGKSKREKKDRVFTDKTSATVICRKNASISVRAQDRYYSSSWSEWASVPCSGGGGSGGGGSGGGGSRNLPVATPDPGMFPCLHHSQNLLRAVSNMLQKARQTLEFYPCTSEEIDHEDITKDKTSTVEACLPLELTKNESCLNSRETSFITNGSCLASRKTSFMMALCLSSIYEDLKMYQVEFKTMNAKLLMDPKRQIFLDQNMLAVIDELMQALNFNSETVPQKSSLEEPDFYKTKIKLCILLHAFRIRAVTIDRVMSYLNASGS
- Mean Total Flux (Nalm-6 Tumor Burdon) (CD19+ Nalm6 tumors [1]; day 6 post tumor implant, day −1 post T cell transfer (before infusion), cell dose not given): 1069500 photons/second
- Mean Total Flux (Nalm-6 Tumor Burdon) (CD19+ Nalm6 tumors [1]; day 13 post tumor implant, day 6 post T cell transfer): 17363750 photons/second
- Mean Total Flux (Nalm-6 Tumor Burdon) (CD19+ Nalm6 tumors [1]; day 20 post tumor implant, day 13 post T cell transfer): 555500 photons/second
- Mean Total Flux (Nalm-6 Tumor Burdon) (CD19+ Nalm6 tumors [1]; day 27 post tumor implant, day 20 post T cell transfer): 769125 photons/second
- Mean Total Flux (Nalm-6 Tumor Burdon) (CD19+ Nalm6 tumors [1]; day 34 post tumor implant, day 27 post T cell transfer): 743125 photons/second
- Mean Total Flux (Nalm-6 Tumor Burdon) (CD19+ Nalm6 tumors [1]; day 41 post tumor implant, day 34 post T cell transfer): 716750 photons/second
- Proportion of survival post tumor implant (CD19+ Nalm6 tumors [2]; day 0 post tumor implant): 100%
- Proportion of survival post tumor implant (CD19+ Nalm6 tumors [2]; day 41 post tumor implant): 50.0%
- Proportion of survival post tumor implant (CD19+ Nalm6 tumors [2]; day 43 post tumor implant): 50.0%
- body weight ([3]; day 6 post tumor implant (before T cell infusion)): 19.6125
- body weight ([3]; day 13 post tumor implant): 20.5125
- body weight ([3]; day 20 post tumor implant): 20.5875
- body weight ([3]; day 27 post tumor implant): 22.2125
- body weight ([3]; day 34 post tumor implant): 21.8875
- body weight ([3]; day 41 post tumor implant): 19.93
- Day 14 Plasma IFNgamma Levels ([4]; cell dose 0.3 ×10e6): 17,565 pg/mL
- Day 14 Plasma IL 12 Levels ([4]; cell dose 0.3 ×10e6): 1,455 pg/mL
- Day 14 Plasma IFNgamma Levels ([4]; cell dose 1 ×10e6): 22,154 pg/mL
- Day 14 Plasma IL 12 Levels ([4]; cell dose 1 ×10e6): 3,853 pg/mL
- Cis Effect: Numbers of CAR+ Cells on Day 14 ([5]; cell dose 0.3 ×10e6): 1402.64
- Trans Effect: Numbers of GFP+ Cells on Day 14 ([5]; cell dose 0.3 ×10e6): 400.00
- Cis Effect: Numbers of CAR+ Cells on Day 14 ([5]; cell dose 1 ×10e6): 3789.89
- Trans Effect: Numbers of GFP+ Cells on Day 14 ([5]; cell dose 1 ×10e6): 332.75
- Kaplan-Meier Analysis of Animal Survival (percent survival) (CD19+ Nalm6 tumors [6]; day 0 post tumor implant): 100%
- Kaplan-Meier Analysis of Animal Survival (percent survival) (CD19+ Nalm6 tumors [6]; day 41 post tumor implant): 100%
- Day 14 Plasma IFNgamma Levels [7]: 13,344 pg/mL
- Day 14 Plasma IL10 Levels [7]: 6.9 pg/mL
- Day 14 Plasma IL 12 Levels [7]: 2,434 pg/mL
- Cis Effect: Numbers of CAR+ Cells on Day 14 [8]: 1777
- Trans Effect: Numbers of GFP+ Cells on Day 14 [8]: 99
